This note sets out measurements from patent publication US20110263454A1, “Methods of Identifying Functional Characteristics of Promoters, Transcription Modifying Proteins and Transcription Modulating Agents” (Salk Institute for Biological Studies, priority 2008, published 2011).

One experiment has as its system mNPY promoter. Nature of the experiment: NHR-promoter luciferase screen, mNPY promoter. The experiment is classed as cell-based, mouse. The essentials:
(§1)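 CV-1 cells were co-transfected with 50 ng NHR (homodimer or NHR/RXR heterodimer), 100 ng promoter-luciferase construct and 50 ng LacZ. Luciferase was normalized to LacZ and to a no-NHR/no-ligand control.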

The test system of a further experiment is RevErba promoter. Briefly: NHR-promoter luciferase screen, RevErba (RVRa) promoter. The experiment is classed as cell-based. Set-up: key to mRevErba promoter reporter activity / Normalized Luc. act., normalized to control: luciferase activity normalized to lacZ and to control (no NHR/ligand). The essentials:
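CV-1 cells co-transfected with NHR (pcDNA3.1, C-terminal V5H6 tag) as homodimer or RXR heterodimer, RevErbα promoter–luciferase reporter and LacZ transfection control; ligand added where applicable. Luciferase normalized to LacZ and to no-NHR/no-ligand control.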

The subject of a further experiment is hMDR1 promoter. Briefly: NHR-promoter luciferase screen, hMDR1 promoter. The experiment is classed as cell-based, human. Summed up: as §1
In the next experiment the test system is hPOMC promoter. Nature of the experiment: NHR-promoter luciferase screen, hPOMC promoter. Type of experiment: cell-based, human. Summed up:
as §1

Another experiment relates to hCYP3A4 promoter. Nature of the experiment: NHR-promoter luciferase screen, hCYP3A4 promoter. The experiment is classed as cell-based, human. The essentials: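 CV-1 cells co-transfected with NHR homodimer or NHR/RXR heterodimer (pcDNA3.1, C-terminal V5H6 tag), promoter-luciferase construct and LacZ transfection control. Orphan receptors screened without ligand. Luciferase normalized to LacZ and to no-NHR/no-ligand control.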

Setting [1] is: RVRa promoter, HR component without or with ligand.
The mark [2] stands for this setting: transcription factor +/- ligand, control = 1.00.
The mark [3] stands for this setting: MDR1 promoter, HR/ligand component.
[4] abbreviates: hPOMC promoter, HR/ligand component.
[5] abbreviates: CYP3A4 promoter, HR/ligand component.

B1: SHP: Small Heterodimer Partner (NR0B2), cDNA driver (protein, UniProt Q15466 1-257, looked up)
Nuclear receptor subfamily 0 …: MSTSQPGACPCQGAASRPAILYALLSSSLKAVPRPRSRCLCRQHRPVQLCAPHRTCREALDVLAKTVAFLRNLPSFWQLPPQDQRRLLQGCWGPLFLLGLAQDAVTFEVAEAPVPSILKKILLEEPSSSGGSGQLPDRPQPSLAAVQWLQCCLESFWSLELSPKEYACLKGTILFNPDVPGLQAASHIGHLQQEAHWVLCEVLEPWCPAAQGRLTRVLLTASTLKSIPTSLLGDLFFRPIIGDVDIAGLLGDMLLLR
Take B1: the “Results of assays of transcription factor (+/- ligand) with mNPY” value in the experiment on mNPY promoter (Table 6d, luciferase activity relative to control (control = 1.00)) was 0.81. Moreover, the “Luc. act., normalized to lacZ” value in the experiment on mNPY promoter (mNPY promoter, HR component with or without ligand) came to 68.3; in the experiment on RevErba promoter (setting [1]), 22.7; in the experiment on hMDR1 promoter (setting [3]), 0.3; with hPOMC promoter (setting [4]), 1.9; in the experiment on hCYP3A4 promoter (setting [5]), 4.6. In addition, the “Normalized Luc. act., normalized to control” value in the experiment with mNPY promoter (mNPY promoter, HR component with or without ligand, relative to control) was determined as 0.8; in the experiment on RevErba promoter (setting [1]), 0.8; in the experiment on hMDR1 promoter (setting [3]), 0.8; in the experiment with hPOMC promoter (setting [4]), 0.4; in the experiment on hCYP3A4 promoter (setting [5]), 1.0. The “negative reciprocal of normalized Luc. act. (fold repression; Table 33)” value with RevErba promoter (RVRa promoter, given only where activity is below control) is listed as −1.229. Besides, in the experiment with RevErba promoter (RVRa promoter, log10 of activity normalized to control), the “normalized Luc. act. on a logarithmic scale (column without head, Table 33)” value was −0.09. The “mRevErba promoter reporter activity” value with RevErba promoter (setting [2]) was determined as 0.81. Also, the “hMDR1 promoter reporter activity” value in the experiment with hMDR1 promoter (setting [2]) came out at 0.84. Moreover, the “hPOMC promoter reporter activity” value in the experiment on hPOMC promoter (setting [2]) was 0.43. Moreover, in the experiment on hCYP3A4 promoter (setting [2]), the “hCYP3A4 promoter reporter activity” value worked out at 1.04.
